Test results taken from US20090011000A1, “Inhibitors of Infection” (priority 2004, published 2009).
Like-named read-outs stand apart in the source and are kept apart here.

How the values were obtained:
HIVNL-4.3 = settings: single round infection assay, TZM-b1 cells
From the text: Two days later, infection cells were lysed and expression of luciferase activity measured.
HIV Neutralization assay.
These C-terminal peptides interact with the N-terminal coiled coil of gp41 thus blocking the refolding of gp41 into the six helical bundle structure ({115}, {116}. {117} and {39}).

mAb 2F5 Fabs = test: chrtm5/2F5 Fab complex, Superdex 200 gel filtration and SDS-PAGE; format: binding; settings: gel filtration, peak analysed by SDS-PAGE
Description: Chrtm5/2F5 Fab complexes were formed and purified on a Superdex 200 gel filtration column.
Fractions corresponding to the major peak shown in FIG. 10 were separated by SDS-PAGE and stained with Coomassie brilliant blue.
The oligomeric nature of chrtm5 was then further confirmed by purifying chrtm5 in complex with mAb 2F5 Fabs. This complex formation shifts the gel filtration profile to a larger molecular weight and chrtm5/2F5-Fab complexes elute at ˜12.5 ml (FIG. 10).

mAb 2F5 = test: Pull down assay of chrtm5 with mAb 2F5; format: binding
Description: (§1) Lane 1—marker; Lane 2—control without antibody; Lane 3—mAb 2F5; and Lane 4—mAb 4E10.
(§2) Pull down assays were then performed to determine whether chrtm5 interacts with the neutralizing antibodies 2F5 and 4E10.

rabbits = test: Immunization of rabbits with chrtm5 proteoliposomes, Western blot of serum; format: in vivo; settings: chrtm5 incorporated into proteoliposomes, two rounds of immunization, preliminary
Description: The oligomeric forms of CHRTM5 are indicated by numbers. The same pattern was obtained with serum dilutions of 1:50, 1:100 and 1:1000.
Liposome preparation. Phospholipids were dissolved in chloroform and dried under a steam of nitrogen. Lipid films were resuspended in reconstitution buffer (25 mM HEPES pH 7.4, 0.1 M KCl). The turbid MLV suspension was passed 21 times through a polycarbonate membrane to give large unilamellar vesicles (LUV) with a diameter of 100 nm. LUVs were solubilized with 20 mM β-OG for one hour at 4° C., and afterwards incubated with protein for an additional hour. The proteoliposome solution was dialyzed with a Liposomat against reconstitution buffer for three hours at room temperature. Pure proteoliposomes were separated from excess protein by gel filtration through a Sephadex G-50 column and were collected by ultracentrifugation at 250000×g for one hour at 4° C. The pellet of pure proteoliposomes was resuspended in reconstitution buffer. The proteoliposomes were used in immunization studies to determine the immunogenicity in rabbits.
chrtm5 can be incorporated into liposomes, which were used for immunization studies.

mAb 4E10 = test: Pull down assay of chrtm5 with mAb 4E10; format: binding
Description: as §1, §2

Molecule	IC50 (HIVNL-4.3; HIVNL-4.3, luciferase activity 2 days later)	IC50 (HIVNL-4.3; HIVNL-4.3, molar value in brackets)	complex formation with mAb 2F5 Fabs (mAb 2F5 Fabs)	pull down by antibody 2F5 (mAb 2F5)	immunogenicity (rabbits)	pull down by antibody 4E10 (mAb 4E10)
enfuvirtide	0.2 µg/mL	45 nM				
chrtm5: gp41 residues 118 to 200 with N-terminal HIS-tag, TEV and Enterokinase protease sites, transmembrane region, five cytoplasmic residues (protein, left off: small tags and cut ends, gp41 residues 118 to 200 with N-terminal HIS-tag, TEV and Enterokinase protease sites, transmembrane region, five cytoplasmic residues) PCVKLTPLCVSLKCTDLKNDTNTNSSSGRMIMEKGEIKNCSFNISTSIRGKVQKEYAFFYKLDIIPIDNDTTSYKLTSCNTSV			the peak contains both chrtm5 and 2F5 Fab fragments	both antibodies pull down chrtm5	immunogenic in rabbits	both antibodies pull down chrtm5
